Measured values published in the supplement of paper PMC12764529.
± gives the half width of the 95% confidence interval.

Tests used:
[1] = folding stability dG unfold from trypsin proteolysis; higher = more stable
Method in brief: (§1)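 How resistant each design was to proteolysis was captured as K50, inferred by Bayesian fitting of sequencing counts. Unfolding free energy was then derived relative to a sequence-predicted unfolded-state K50 and a shared folded-state K50, per protease or combined. Digestion used trypsin and chymotrypsin at 11 threefold-diluted concentrations plus a no-protease condition, on mini-proteins under 80 residues without cysteine in a PA-tagged cDNA display construct. Designs were kept only when AlphaFold2 dimer inter-PAE was above 15.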

[2] = folding stability dG unfold (combined trypsin and chymotrypsin); higher = more stable
Method in brief: as §1

[3] = folding stability dG unfold from chymotrypsin proteolysis; higher = more stable
Method in brief: as §1

Sequence	folding stability dG unfold [1]	folding stability dG unfold [2]	folding stability dG unfold [3]
SSSLDYVFKDIDPSSPNKLTLSEIKPVPESDKVVNKIVFPTKTILVTFDSAEDAEAHIGLLLKLFGSPPESA [r9_258_TrMRF]	0.66 ± 0.044 kcal/mol	0.852 ± 0.1 kcal/mol	0.924 ± 0.12 kcal/mol
SMKTVTLNFPSLSEEEVRALAEELEATGRYRVEKIDSSTPNIKVTVLEEPPEPRPPPPPALVRDADARAASA [r9_830_JUSTAS]	1.08 ± 0.088 kcal/mol	1.4 ± 0.12 kcal/mol	1.83 ± 0.12 kcal/mol
SAGDAIADLLKEAGFEIDSVDSIEPTDGSYVIGFKFEFPNGWYMEITIWIDPNNPDKIEIDIKMQPPDESAG [r5_683_TrROS]	2.6 ± 0.28 kcal/mol	4.06 ± 0.45 kcal/mol	4.43 ± 0.33 kcal/mol
SAGGSAGGSAGGPYVVKVKLKDGSVVELPVEEDHIPTIEDLVKAGIPPELIESVEIEPESAGGSAGGSAGGS [r10_565_TrMRF]	2.57 ± 0.12 kcal/mol	2.91 ± 0.1 kcal/mol	3.09 ± 0.093 kcal/mol
SAGKPLPKLKTYEVDVPDNKKVKIEVYKLPDGTAIVKIKDDNGNESEIEIPLSLLENLSVEDLVKLAKSAGG [r19_47_TrMRF]	0.77 ± 0.028 kcal/mol	1.9 ± 0.095 kcal/mol	2.28 ± 0.047 kcal/mol
SAGMEIEITGPNLEELAEKVAKELKEKNWSPPVTITLKEPGGKTVLKVTVEFNPPNPNEIKVTKEKVESAGG [r19_85_JUSTAS]	0.571 ± 0.14 kcal/mol	0.683 ± 0.18 kcal/mol	0.902 ± 0.062 kcal/mol
PEKVILVEVPAGEELTEEELKELAEALGLEVEIEKVKVTVTVTVEVTLPDGKKVKVETTETRTVVLVTVKDS [r1_238_TrROS_Hall]	2.66 ± 0.077 kcal/mol	3.16 ± 0.14 kcal/mol	3.42 ± 0.14 kcal/mol
SAGGSAGGSAGGDKNGKKELRPEVKIKVKIEAEIEPFRYPNNGMPMWILKISIEITSIDSAGGSAGGSAGGS [r10_877_TrROS]	2.96 ± 0.18 kcal/mol	4.5 ± 0.19 kcal/mol	4.75 ± 0.18 kcal/mol
SAGGSAGGSPGNYIIQIEIKFPGRKHTWHVDSPEEALEQLKNDLEKQHPNAPITDVEIEVFPLSAGGSAGGS [r12_429_TrROS]	0.791 ± 0.2 kcal/mol	0.556 ± 0.46 kcal/mol	0.155 ± 0.94 kcal/mol
SAGGSAGGSEEEKLKKLKEKLKPPKIKVKIEVKVEYDKETGKLKVEATVEINGKKYKLTIEFPSAGGSAGGS [r20_230_TrROS_Hall]	3.11 ± 0.19 kcal/mol	3.49 ± 0.71 kcal/mol	4.19 ± 0.13 kcal/mol
SAGGSAGGSADNPDDKKKQKPKPEIKVKVEWVVIPNGFLIFEITIAGGITLTIIIPFPPNMFSAGGSAGGSA [r18_192_TrROS]	2 ± 0.058 kcal/mol	2.84 ± 0.16 kcal/mol	3.09 ± 0.035 kcal/mol
SAGGSASSMPVTLTLLLTRPDGTPLTLPFEAETLEEAIERGTALAQELIAELGDPNMKITGLEVVPSAGGSA [r15_698_JUSTAS]	0.904 ± 0.067 kcal/mol	1.22 ± 0.1 kcal/mol	1.44 ± 0.092 kcal/mol
SAGGSAGGSAGGSLEIEITFELPDDVRLRIRARIEPLPDGSLKVEVEIELIPVKPDEDLSAGGSAGGSAGGS [r10_241_TrMRF]	3.17 ± 0.15 kcal/mol	3.09 ± 0.21 kcal/mol	2.9 ± 0.089 kcal/mol
SAGATFKPGQTVTVVEVKVEVSVSLSRNADGSVSLSVSVRVEVKTTTVTLPEPATVTLPPGVKSLEDLLSAG [r5_770_TrROS_Hall]	2.37 ± 0.097 kcal/mol	3.27 ± 0.089 kcal/mol	3.73 ± 0.096 kcal/mol
SAGKKKKKKLKITIEITYNKETNTVTIKITVDGKEITVEVKAKSKEEALLNALKELEKKLNIKIKEVKLSAG [r5_251_TrROS_Hall]	1.36 ± 0.13 kcal/mol	2.27 ± 0.36 kcal/mol	2.1 ± 0.18 kcal/mol
SAGGPFDDFEPLGTIPFKVNGMEIEIQIWRMKNPGHYMVDIRNPGFGIPVMYWVPPGDIEEILDLIRSAGGS [r8_469_TrROS]	2.22 ± 0.078 kcal/mol	2.7 ± 0.14 kcal/mol	3.1 ± 0.059 kcal/mol

Sequence	folding stability dG unfold [1]	folding stability dG unfold [2]	folding stability dG unfold [3]
SKIRIEWPDETQEIKIPKDASVAIDPGNGHIAIHGPDGEALGFPLGPNWKIEPDDDEIEITIPPPKPEDPSA [r9_653_TrROS]	-0.118 ± 0.15 kcal/mol	0.158 ± 0.2 kcal/mol	0.141 ± 0.056 kcal/mol
SAGSPVVIKVSKVDSSGNWTLLEEIPIPPSEVSGVELVGDSLKILPPGSGGSYTFTIENSTVTVSIEESAGG [r19_408_JUSTAS]	0.465 ± 0.038 kcal/mol	0.933 ± 0.06 kcal/mol	1.27 ± 0.084 kcal/mol
SAGGSAGGSMTITKRSDGTIEVEIEISPEHPDVSPEEVKERVKKELEKKGIKTPVKITVKPVPESAGGSAGG [r6_480_JUSTAS]	1.35 ± 0.044 kcal/mol	1.92 ± 0.19 kcal/mol	2.27 ± 0.14 kcal/mol
SAPDWVKIKFPFRFYNPDPDGKPMAKMKLEIEVYPSPGAYMAKIEDPNFGMKITFPFDSPEEVKDFLQNSAG [r14_508_TrROS]	1.25 ± 0.083 kcal/mol	1.23 ± 0.32 kcal/mol	1.14 ± 0.25 kcal/mol
SAGGSAGGSAGSMTPAEEKAREVEERLRREHPEFERVFVRVKEFRPETGEVTIEVEVEPRSAGGSAGGSAGG [r11_617_JUSTAS]	0.292 ± 0.061 kcal/mol	-0.0464 ± 0.12 kcal/mol	-0.641 ± 0.27 kcal/mol
SAGGEFLEKVIEAAIEAAKAGPDAKLELTIPVPGGPVKVTIEVGEDGKVKVTIYKGDKKILEIELPLSAGGS [r16_611_TrMRF]	3.85 ± 0.35 kcal/mol	> 6 kcal/mol	4.62 ± 0.34 kcal/mol
SAGGSAMTIEKREDGYLVITVDVPPGTSPEELAERLKKLFPNEEVTVTVVKDGKLVKEFVIKAEDLSAGGSA [r15_1047_TrROS_Hall]	2.25 ± 0.056 kcal/mol	2.2 ± 0.071 kcal/mol	2.06 ± 0.034 kcal/mol
SAGGSAGGKITPEMEKLKKEIADAIKKAFPNKDLKIEVIKIEKTKDGSVIIDIKIGDKIIRIKASAGGSAGG [r6_494_TrMRF]	2.58 ± 0.14 kcal/mol	2.16 ± 0.19 kcal/mol	1.85 ± 0.12 kcal/mol
SWQIKEVFPLPNGMRIKVYIHPDGYVQVSIRMYRPNPNDGKPQRQRFSITVPLPPGKPPSIDDILDYILNSA [r9_614_TrROS]	2.36 ± 0.051 kcal/mol	2.44 ± 0.22 kcal/mol	2.24 ± 0.21 kcal/mol
SAGGSAGGSAKPRVKIVEVDEEKKRVLVKTEDGEVVELEGLTPEQIEELAKALGADEVELVSAGGSAGGSAG [r3_78_TrROS_Hall]	0.174 ± 0.07 kcal/mol	1.12 ± 0.17 kcal/mol	1.53 ± 0.095 kcal/mol
SAGGSAGGGMRIDDIDIKQDPGNPNRYKITIKFDGPPIEFTVPPGEPLPIRFPDGKPLFEIPIDSAGGSAGG [r6_922_TrROS]	0.312 ± 0.062 kcal/mol	0.479 ± 0.068 kcal/mol	0.486 ± 0.16 kcal/mol
SAGGKKYVLIKVKVRVEKEVNGEKKEVELELEILVPVDEETGKTPEEKAKELAKKLPPEVTEVKIEPVSAGG [r13_335_TrROS_Hall]	1.63 ± 0.15 kcal/mol	2.21 ± 0.31 kcal/mol	2.86 ± 0.061 kcal/mol
SAGGSAPRIRVHFWNPNTGQWHHIPVERLKKAIDKNPPGEELEFPIPGYPVKVQVEPDDGTIWIRMSAGGSA [r15_350_TrROS]	1.01 ± 0.061 kcal/mol	1.19 ± 0.16 kcal/mol	1.17 ± 0.25 kcal/mol
SAGGSAGGSAGGAMAPDEPVERVEVTYKTGRLTFPGKPVLKKEKVVLKFTLTVTDPALLSAGGSAGGSAGGS [r10_745_JUSTAS]	-0.234 ± 0.33 kcal/mol	0.0101 ± 0.15 kcal/mol	-0.0228 ± 0.28 kcal/mol
SAGGSAGGSAGEKTLKIVADSEEEAEALAKELAEKYNLEVTIERNPEEEGKYVITIKIKPSAGGSAGGSAGG [r11_797_TrROS_Hall]	2.46 ± 0.14 kcal/mol	3.17 ± 0.17 kcal/mol	3.5 ± 0.045 kcal/mol
